Assay results reported in patent US20050054043A1.

Biological target: transferrin receptor on HeLa S3 cells (human) (UniProt P02786)
Experiment: radioiodinated transferrin on HeLa S3 cells, no competitor

Chain of transferrin receptor on HeLa S3 cells (human) (P02786 whole entry): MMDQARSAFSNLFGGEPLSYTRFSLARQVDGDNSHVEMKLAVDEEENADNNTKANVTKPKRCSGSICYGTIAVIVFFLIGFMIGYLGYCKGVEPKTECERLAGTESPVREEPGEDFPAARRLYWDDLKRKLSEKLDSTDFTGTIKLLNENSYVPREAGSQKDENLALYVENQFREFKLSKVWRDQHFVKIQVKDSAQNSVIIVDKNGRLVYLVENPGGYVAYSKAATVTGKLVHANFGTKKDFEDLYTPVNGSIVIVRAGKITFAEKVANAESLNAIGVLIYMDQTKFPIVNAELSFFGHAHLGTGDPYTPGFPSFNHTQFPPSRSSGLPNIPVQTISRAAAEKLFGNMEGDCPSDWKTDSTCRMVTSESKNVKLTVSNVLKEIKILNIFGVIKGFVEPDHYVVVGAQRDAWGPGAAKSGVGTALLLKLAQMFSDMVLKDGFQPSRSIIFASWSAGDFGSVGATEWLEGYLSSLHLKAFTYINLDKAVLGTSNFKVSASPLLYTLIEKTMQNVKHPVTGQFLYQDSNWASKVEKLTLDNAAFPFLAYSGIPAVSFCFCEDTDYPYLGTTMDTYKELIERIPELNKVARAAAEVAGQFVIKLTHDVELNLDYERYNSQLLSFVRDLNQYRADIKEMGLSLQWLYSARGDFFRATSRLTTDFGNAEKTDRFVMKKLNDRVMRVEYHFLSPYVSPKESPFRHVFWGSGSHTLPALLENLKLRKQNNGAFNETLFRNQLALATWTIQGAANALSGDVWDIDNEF

With radiolabeled diferric transferrin as the substance, how does the TF/cell in the absence of competitor read?
The TF/cell in the absence of competitor was 328000 TF/cell.

What about the cpm bound in the absence of competitor of the same substance?
The cpm bound in the absence of competitor was 7480 cpm.
